Biological target: human thrombopoietin receptor (human c-Mpl) (human) (UniProt P40238)
Assay: cell-based or functional assay

Q: With “PEG-rHuMGDF (pegylated recombinant human megakaryocyte proliferation and development factor) (from UniProt P40225 22-184) (ligand)” as the substance, how does the UT7/TPO (Max) read?
A: 100%

Source: patent publication US20100004429A1
